Measurements as given in patent US20240247080A1, “GLP1/GIP/NPY2 RECEPTOR TRIPLE AGONISTS” (Boehringer Ingelheim International GmbH, priority 2022, published 2024).
One block for each binder: values may come before it. Starred links: 1 amine or outer side, 2 acyl side, 3 side chain; linkers in the order of their positions; H or OH if unused. Non-standard residues stand in square brackets, D forms with d. Groups on a side chain read outwards from the residue. No end group written: not given here. *: point of attachment. C20 diacid = O=C(O)CCCCCCCCCCCCCCCCCCC(=O)*; C18 diacid = O=C(O)CCCCCCCCCCCCCCCCC(=O)*; γGlu = O=C(O)[C@H](CCC(=O)[*:2])N[*:1]; AEEA = NCCOCCOCC(=O)O; Aib = CC(C)(N)C(=O)O; Ahx = NCCCCCC(=O)O; OEG = OEG spacer

Key:
Assay in all cases: cell-based or functional assay
[1] = molecular target: T1, human GIP receptor (human, UniProt P48546 22-466)
T1 sequence (looked up): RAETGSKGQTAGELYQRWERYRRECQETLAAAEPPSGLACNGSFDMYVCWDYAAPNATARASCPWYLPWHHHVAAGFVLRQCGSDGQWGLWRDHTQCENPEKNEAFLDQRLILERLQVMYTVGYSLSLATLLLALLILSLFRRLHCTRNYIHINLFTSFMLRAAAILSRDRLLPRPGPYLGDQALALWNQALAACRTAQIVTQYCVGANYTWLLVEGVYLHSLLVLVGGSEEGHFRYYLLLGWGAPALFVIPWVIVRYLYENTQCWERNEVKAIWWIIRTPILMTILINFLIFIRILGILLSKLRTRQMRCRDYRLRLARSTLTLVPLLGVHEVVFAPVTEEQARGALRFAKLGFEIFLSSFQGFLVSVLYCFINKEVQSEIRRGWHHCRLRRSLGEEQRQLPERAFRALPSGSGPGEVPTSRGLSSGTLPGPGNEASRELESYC

[2] = molecular target: human GLP-1 receptor (human, UniProt P43220 24-463)
[3] = molecular target: T2, human neuropeptide Y2 receptor (human, UniProt P49146 1-381)
T2 sequence (looked up): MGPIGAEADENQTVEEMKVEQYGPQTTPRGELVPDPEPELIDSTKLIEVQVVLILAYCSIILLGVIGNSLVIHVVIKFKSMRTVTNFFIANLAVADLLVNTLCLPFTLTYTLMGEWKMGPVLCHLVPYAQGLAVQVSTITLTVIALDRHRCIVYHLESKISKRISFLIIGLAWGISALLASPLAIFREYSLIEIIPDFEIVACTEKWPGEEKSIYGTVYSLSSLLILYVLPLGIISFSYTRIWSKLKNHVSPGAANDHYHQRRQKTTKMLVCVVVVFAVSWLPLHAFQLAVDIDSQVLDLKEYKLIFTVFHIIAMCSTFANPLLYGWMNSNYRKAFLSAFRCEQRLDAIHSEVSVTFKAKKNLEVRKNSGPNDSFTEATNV

EC50 hGIPR 0.5% hP (CreLuc) [1]: 0.65 nM
EC50 hGIPR 100% hP (CreLuc) [1]: 2.81 nM
EC50 hGLP1R 0.5% hP (CreLuc) [2]: 0.29 nM
EC50 hGLP1R 100% hP (CreLuc) [2]: 7.08 nM
EC50 hNPY2R 0.5% hP (CreLuc) [3]: 18.2 nM
EC50 hNPY2R 100% hP (CreLuc) [3]: 101 nM
Binder: Y[Aib]EGTFTSDYSI[Aib]LEKQAQ[Aib]AFVEWLIK([γGlu-γGlu-γGlu-γGlu-γGlu-γGlu-C20 diacid])GGPSEGASLRHYYNWLTRQRY-NH2 (also: TFA salt) [Compound 305]

EC50 hGIPR 0.5% hP (CreLuc) [1]: 0.36 nM
EC50 hGIPR 100% hP (CreLuc) [1]: 2.36 nM
EC50 hGLP1R 0.5% hP (CreLuc) [2]: 0.2 nM
EC50 hGLP1R 100% hP (CreLuc) [2]: 4.42 nM
EC50 hNPY2R 0.5% hP (CreLuc) [3]: 33.3 nM
EC50 hNPY2R 100% hP (CreLuc) [3]: 122 nM
Binder: Y[Aib]EGTFTSDYSI[Aib]LEKQAQ[Aib]AFVEWLIK([Ahx-γGlu-γGlu-γGlu-γGlu-γGlu-γGlu-C18 diacid])GGPSEGASLRHYYNWLTRQRY-NH2 (also: TFA salt) [Compound 303]

EC50 hGIPR 0.5% hP (CreLuc) [1]: 1.39 nM
EC50 hGIPR 100% hP (CreLuc) [1]: 1.11 nM
EC50 hGLP1R 0.5% hP (CreLuc) [2]: 0.11 nM
EC50 hGLP1R 100% hP (CreLuc) [2]: 3.5 nM
EC50 hNPY2R 0.5% hP (CreLuc) [3]: 14.1 nM
EC50 hNPY2R 100% hP (CreLuc) [3]: 56.5 nM
Binder: Y[Aib]EGTFTSDYSI[Aib]LEKQAQ[Aib]AFVEWLIKGGPSEGASLRHYYNWLTRQRY-NH2 (not fully specified (residue 28); also: TFA salt) [Compound 296]

EC50 hGIPR 0.5% hP (CreLuc) [1]: 0.4 nM
EC50 hGIPR 100% hP (CreLuc) [1]: 0.71 nM
EC50 hGLP1R 0.5% hP (CreLuc) [2]: 0.08 nM
EC50 hGLP1R 100% hP (CreLuc) [2]: 2.97 nM
EC50 hNPY2R 0.5% hP (CreLuc) [3]: 11 nM
EC50 hNPY2R 100% hP (CreLuc) [3]: 31.6 nM
Binder: Y[Aib]EGTFTSDYSI[Aib]LEKQAQ[Aib]AFVEWLIK([AEEA-AEEA-γGlu-γGlu-γGlu-C18 diacid])GGPSEGASLRHYYNWLTRQRY-NH2 (also: TFA salt) [Compound 299]

EC50 hGIPR 0.5% hP (CreLuc) [1]: 0.26 nM
EC50 hGIPR 100% hP (CreLuc) [1]: 1.33 nM
EC50 hGLP1R 0.5% hP (CreLuc) [2]: 0.18 nM
EC50 hGLP1R 100% hP (CreLuc) [2]: 4.21 nM
EC50 hNPY2R 0.5% hP (CreLuc) [3]: 13.6 nM
EC50 hNPY2R 100% hP (CreLuc) [3]: 37.5 nM
B1: Compound 293 (peptide)
peptide: YXEGTFTSDYSIXLEKQAQXAFVEWLIKGGPSEGASLRHYYNWLTRQRY
modifications: Aib at 2, 13, 20; K28 side chain acylated with C18DA-gGlu-Glu-gGlu-gGlu-gGlu-gGlu-eLys (so in the source); C-terminal amide (NH2)

EC50 hGIPR 0.5% hP (CreLuc) [1]: 0.58 nM
EC50 hGIPR 100% hP (CreLuc) [1]: 3.27 nM
EC50 hGLP1R 0.5% hP (CreLuc) [2]: 0.23 nM
EC50 hGLP1R 100% hP (CreLuc) [2]: 11.3 nM
EC50 hNPY2R 0.5% hP (CreLuc) [3]: 25.4 nM
EC50 hNPY2R 100% hP (CreLuc) [3]: 99.3 nM
B2: Compound 301 (peptide)
peptide: B1 peptide
modifications: Aib at 2, 13, 20; K28 side chain acylated with C20DA-gGlu-gGlu-gGlu-gGlu-gGlu-AHX; C-terminal amide (NH2)

EC50 hGIPR 0.5% hP (CreLuc) [1]: 0.23 nM
EC50 hGIPR 100% hP (CreLuc) [1]: 2.35 nM
EC50 hGLP1R 0.5% hP (CreLuc) [2]: 0.35 nM
EC50 hGLP1R 100% hP (CreLuc) [2]: 10.3 nM
EC50 hNPY2R 0.5% hP (CreLuc) [3]: 35.7 nM
EC50 hNPY2R 100% hP (CreLuc) [3]: 114 nM
B3: Compound 304 (peptide)
peptide: B1 peptide
modifications: Aib at 2, 13, 20; K28 side chain acylated with C18DA-gGlu-gGlu-gGlu-gGlu-gGlu-AHX; C-terminal amide (NH2)

EC50 hGIPR 0.5% hP (CreLuc) [1]: 0.25 nM
EC50 hGIPR 100% hP (CreLuc) [1]: 0.93 nM
EC50 hGLP1R 0.5% hP (CreLuc) [2]: 0.12 nM
EC50 hGLP1R 100% hP (CreLuc) [2]: 3.74 nM
EC50 hNPY2R 0.5% hP (CreLuc) [3]: 14.4 nM
EC50 hNPY2R 100% hP (CreLuc) [3]: 40.5 nM
Binder: Y[Aib]EGTFTSDYSI[Aib]LEKQAQ[Aib]AFVEWLIK([AEEA-AEEA-γGlu-γGlu-γGlu-γGlu-C18 diacid])GGPSEGASLRHYYNWLTRQRY-NH2 (also: TFA salt) [Compound 297]

EC50 hGIPR 0.5% hP (CreLuc) [1]: 0.33 nM
EC50 hGIPR 100% hP (CreLuc) [1]: 3.87 nM
EC50 hGLP1R 0.5% hP (CreLuc) [2]: 0.15 nM
EC50 hGLP1R 100% hP (CreLuc) [2]: 6.05 nM
EC50 hNPY2R 0.5% hP (CreLuc) [3]: 31.9 nM
EC50 hNPY2R 100% hP (CreLuc) [3]: 173 nM
Binder: Y[Aib]EGTFTSDYSI[Aib]LEKQAQ[Aib]AFVEWLIK([Glu-Glu-Glu-Glu-Glu-Glu-C18 diacid])GGPSEGASLRHYYNWLTRQRY-NH2 (also: TFA salt) [Compound 302]

EC50 hGIPR 0.5% hP (CreLuc) [1]: 0.3 nM
EC50 hGIPR 100% hP (CreLuc) [1]: 0.98 nM
EC50 hGLP1R 0.5% hP (CreLuc) [2]: 0.14 nM
EC50 hGLP1R 100% hP (CreLuc) [2]: 3.53 nM
EC50 hNPY2R 0.5% hP (CreLuc) [3]: 10.9 nM
EC50 hNPY2R 100% hP (CreLuc) [3]: 30.2 nM
Binder: Y[Aib]EGTFTSDYSI[Aib]LEKQAQ[Aib]AFVEWLIKGGPSEGASLRHYYNWLTRQRY-NH2 (not fully specified (residue 28); also: TFA salt) [Compound 295]

EC50 hGIPR 0.5% hP (CreLuc) [1]: 0.21 nM
EC50 hGIPR 100% hP (CreLuc) [1]: 0.89 nM
EC50 hGLP1R 0.5% hP (CreLuc) [2]: 0.08 nM
EC50 hGLP1R 100% hP (CreLuc) [2]: 3.2 nM
EC50 hNPY2R 0.5% hP (CreLuc) [3]: 14.2 nM
EC50 hNPY2R 100% hP (CreLuc) [3]: 55.2 nM
Binder: Y[Aib]EGTFTSDYSI[Aib]LEKQAQ[Aib]AFVEWLIK([γGlu-γGlu-γGlu-γGlu-C18 diacid])GGPSEGASLRHYYNWLTRQRY-NH2 (also: TFA salt) [Compound 294]

EC50 hGIPR 0.5% hP (CreLuc) [1]: 0.13 nM
EC50 hGIPR 100% hP (CreLuc) [1]: 1.27 nM
EC50 hGLP1R 0.5% hP (CreLuc) [2]: 0.11 nM
EC50 hGLP1R 100% hP (CreLuc) [2]: 5.22 nM
EC50 hNPY2R 0.5% hP (CreLuc) [3]: 12.1 nM
EC50 hNPY2R 100% hP (CreLuc) [3]: 66.5 nM
Binder: Y[Aib]EGTFTSDYSI[Aib]LEKQAQ[Aib]AFVEWLIK([OEG-OEG-Glu-Glu-Glu-C18 diacid])GGPSEGASLRHYYNWLTRQRY-NH2 (also: TFA salt) [Compound 298]

EC50 hGIPR 0.5% hP (CreLuc) [1]: 0.16 nM
EC50 hGIPR 100% hP (CreLuc) [1]: 1.81 nM
EC50 hGLP1R 0.5% hP (CreLuc) [2]: 0.11 nM
EC50 hGLP1R 100% hP (CreLuc) [2]: 6.33 nM
EC50 hNPY2R 0.5% hP (CreLuc) [3]: 20 nM
EC50 hNPY2R 100% hP (CreLuc) [3]: 89.3 nM
Binder: Y[Aib]EGTFTSDYSI[Aib]LEKQAQ[Aib]AFVEWLIK([AEEA-γGlu-γGlu-γGlu-C18 diacid])GGPSEGASLRHYYNWLTRQRY-NH2 (also: TFA salt) [Compound 300]
